Laboratory results from patent US20030167487A1 (Takeda / Millennium, published 2003).

What was measured:
[1] = molecular target: T1, human vWf (human, UniProt P04275 764-2813); experiment: platelet adhesion to vWf-coated 96-well plates (25-500 ng/well) with botrocetin 4 µM; bound platelets read by acid phosphatase activity
T1 construct: Plasma-type multimeric protein; It was coated on plates (25-500 ng/well) in the adhesion assay and FITC-labeled (F/P ratio 1-4) in the flow cytometry assay; also called FITC˜vWf
Description: 96-well plates were coated with various concentrations (25-500 ng/well) of human vWf overnight at 4° C. Pooled WP from mice were resuspended in Mg²⁺-free CFTH buffer (1.2×10⁸/mL) containing botrocetin (4 μM), and incubated immobilized human vWf for 1 hour at room temp. Following two PBS washes, bound platelets were lysed and intracellular acid phosphatase activity was quantitated calorimetrically using the substrate pNPP (Sigma).

[2] = molecular target: T1, human vWf; experiment: flow cytometry, FITC-vWf on mouse platelets in PRP stimulated with ADP and epinephrine (no botrocetin)

Binder	binding result [1]	binding result [2]
mouse GP Ib on platelets (receptor, whole, on cells; Native receptor on mouse platelets of GP V wt, +/- and -/- genotype, present there in complex with GP IX (and with GP V in wt); also called GP Ib-IX (complex on platelets)) chain 1: QHTCSISKVTSLLEVNCENKKLTALPADLPADTGILHLGENQLGTFSTASLVHFTHLTYLYLDRCELTSLQTNGKLIKLENLDLSHNNLKSLPSLGWALPALTTLDVSFNKLGSLSPGVLDGLSQLQELYLQNNDLKSLPPGLLLPTTKLKKLNLANNKLRELPSGLLDGLEDLDTLYLQRNWLRTIPKGFFGTLLLPFVFLHANSWYCDCEILYFRHWLQENANNVYLWKQGVDVKDTTPNVASVRCANLDNAPVYSYPGKGCPTSSGDTDYDDYDDIPDVPATRTEVKFSTNTKVHTTHWSLLAAAPSTSQDSQMISLPPTHKPTKKQSTFIHTQSPGFTTLPETMESNPTFYSLKLNTVLIPSPTTLEPTSTQATPEPNIQPMLTTSTLTTPEHSTTPVPTTTILTTPEHSTIPVPTTAILTTPKPSTIPVPTTATLTTLEPSTTPVPTTATLTTPEPSTTLVPTTATLTTPEHSTTPVPTTATLTTPEHSTTPVPTTATLTTPEPSTTLTNLVSTISPVLTTTLTTPESTPIETILEQFFTTELTLLPTLESTTTIIPEQNSFLNLPEVALVSSDTSESSPFLNSDFCCFLPLGFYVLGLLWLLFASVVLILLLTWTWHVTPHSLDMEQSAALATSTHTTSLEVQRARQVTMPRAWLLFLQGSLPTFRSSLFLWVRPNGRVGPLVAGRRPSALSQGRGQDLLGTVGIRYSGHSL chain 2: PAPCSCAGTLVDCGRRGLTWASLPAAFPPDTTELVLTGNNLTALPPGLLDALPALRAAHLGANPWRCDCRLLPLRAWLAGRPERAPYRDLRCVAPPALRGRLLPYVAEDELRAACAPGLLCWGALVAQLALLVLGLLHALLLALLLGRLRRLRARARARSIQEFSLTAPLVAESARGGAS	binds	–
mouse αIIbβ3 on platelets (receptor, whole, on cells; Native receptor on washed mouse platelets of GP V wt, +/- and -/- genotype; also called mouse fibrinogen receptor; GPIIb-IIIa) chain 1: LNLDSEKFSVYAGPNGSHFGFSVDFHKDKHGSVSIVVGAPRALNASQEETGAVFLCPWKANGGKCNPLLFDLRDETRNLGFQIFQTFKTGQGLGASVVSWNDVIVACAPWQHWNVLEKRDEAEKTPVGGCFLAQLQSGGRAEYSPCRANTMSSVYAESFRGDKRYCEAGFSLAVTQAGELVLGAPGGYFFLGLLARVPIENIISSYRPGTLLWHVSNQRFTYDNSNPVFFDGYRGYSVAVGEFDGDPSTTEYVSGAPTWSWTLGAVEILDSYYQPLHRLHGEQMASYFGHSVAVTDVNGDGRHDLLVGAPLYMESRADRKLAEVGRVYLFLQPKGPQALSTPTLLLTGTQLYGRFGSAIAPLGDLNRDGYNDIAVAAPYGGPSGQGQVLIFLGQSEGLSPRPSQVLDSPFPTGSGFGFSLRGAVDIDDNGYPDLIVGAYGASKVAVYRAQPVVMATVQLMVQDSLNPTLKNCVLDQTKTPVSCFNIQMCVGATGHNIPQKLHLKAELQLDLQKPRQGRRVLLLASQQASLTLSLDLGGRDKPICHTTGAFLRDEADFRDKLSPIVLSLNVSLPPEETGGAPAVVLHGETHVQEQTRIILDCGEDDLCVPQLRLTATAGDSPLLIGADNVLELKIEAANDGEGAYEAELAVHLPPGAHYMRALSNIEGFERLVCTQKKENESRVALCELGNPMKKDTRIGITMLVSVENLEEAGESVSFQLQVRSKNSQNPNSKVVMLPVAIQAEATVELRGNSFPASLVVAAEEGDREQEDLDRWVSRLEHTYELHNIGPGTVNGLRLLIHIPGQSQPSDLLYILDVQPQGGLLCSTQPSPKVDWKLSTPSPSSIRPVHHQRERRQAFLQGPKPGQQDPVLVSCDGSASCTVVECELREMVRGQRAMVTVQVMLGLSSLRQRPQEQFVLQSHAWFNVSSLPYSVPVVSLPSGQARVQTQLLRALEERAIPVWWVLVGVLGGLLLLTLLVLAMWKAGFFKRNRPPLEEDEEEE chain 2: ESNICTTRGVNSCQQCLAVSPVCAWCSDETLSQGSPRCNLKENLLKDNCAPESIEFPVSEAQILEARPLSSKGSGSSAQITQVSPQRIALRLRPDDSKIFSLQVRQVEDYPVDIYYLMDLSFSMKDDLSSIQTLGTKLASQMRKLTSNLRIGFGAFVDKPVSPYMYISPPQAIKNPCYNMKNACLPMFGYKHVLTLTDQVSRFNEEVKKQSVSRNRDAPEGGFDAIMQATVCDEKIGWRNDASHLLVFTTDAKTHIALDGRLAGIVLPNDGHCHIGTDNHYSASTTMDYPSLGLMTEKLSQKNINLIFAVTENVVSLYQNYSELIPGTTVGVLSDDSSNVLQLIVDAYGKIRSKVELEVRDLPEELSLSFNATCLNNEVIPGLKSCVGLKIGDTVSFSIEAKVRGCPQEKEQSFTIKPVGFKDSLTVQVTFDCDCACQAFAQPSSPRCNNGNGTFECGVCRCDQGWLGSMCECSEEDYRPSQQEECSPKEGQPICSQRGECLCGQCVCHSSDFGKITGKYCECDDFSCVRYKGEMCSGHGQCNCGDCVCDSDWTGYYCNCTTRTDTCMSTNGLLCSGRGNCECGSCVCVQPGSYGDTCEKCPTCPDACSFKKECVECKKFNRGTLHEENTCSRYCRDDIEQVKELTDTGKNAVNCTYKNEDDCVVRFQYYEDTSGRAVLYVVEEPECPKGPDILVVLLSVMGAILLIGLATLLIWKLLITIHDRKEFAKFEEERARAKWDTANNPLYKEATSTFTNITYRGT	–	no binding
